Reference: US20180155451A1 (published 2018)

T1: FcγRIIa R (human FcγRIIa, allotype R, Arg at position 131), extracellular domain with C-terminal His tag (human, UniProt P12318 34-217)
T1 construct: extracellular domain; expressed in FreeStyle293 cells; analyte in Biacore; also called 2aR; FcgRIIa R
T1 sequence (looked up): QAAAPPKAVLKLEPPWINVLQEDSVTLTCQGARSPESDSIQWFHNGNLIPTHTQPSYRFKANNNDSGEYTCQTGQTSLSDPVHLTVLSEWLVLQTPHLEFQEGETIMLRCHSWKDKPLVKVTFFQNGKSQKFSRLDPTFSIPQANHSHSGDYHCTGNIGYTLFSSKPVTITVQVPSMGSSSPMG

T2: FcγRIIb (human, UniProt P31994 43-217)
T2 construct: extracellular domain; also called FcgRIIb; 2b; not shown: His tag at the C terminus
T2 sequence (looked up): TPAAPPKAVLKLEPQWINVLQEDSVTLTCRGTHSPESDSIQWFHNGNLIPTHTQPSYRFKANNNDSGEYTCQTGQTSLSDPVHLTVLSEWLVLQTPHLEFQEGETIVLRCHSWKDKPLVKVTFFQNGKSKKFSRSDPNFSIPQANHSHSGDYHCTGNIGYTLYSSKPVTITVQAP

B1: GpH7-A5/GpH7-B3 variant P238_15Y/GpL16-k0 (antibody, human IgG1, kappa)
heavy 1: not shown
heavy 2: not shown
light: DIVMTQSPLSLPVTPGEPASISCQASESLVHSNRNTYLHWYLQKPGQSPQLLIYKVSNRFSGVPDRFSGSGSGTDFTLKISRVEAEDVGVYYCSQNTHVPPTFGQGTKVEIERTVAAPSVFIFPPSDEQLKSGTASVVCLLNNFYPREAKVQWKVDNALQSGNSQESVTEQDSKDSTYSLSSTLTLSKADYEKHKVYACEVTHQGLSSPVTKSFNRGEC
notes: heterodimerized antibody, mutation in one H chain only; also called He Ab
B2: GpH7-A5/GpH7-B3 variant P271_09D/GpL16-k0 (antibody, human IgG1, kappa)
heavy 1: not shown
heavy 2: not shown
light: DIVMTQSPLSLPVTPGEPASISCQASESLVHSNRNTYLHWYLQKPGQSPQLLIYKVSNRFSGVPDRFSGSGSGTDFTLKISRVEAEDVGVYYCSQNTHVPPTFGQGTKVEIERTVAAPSVFIFPPSDEQLKSGTASVVCLLNNFYPREAKVQWKVDNALQSGNSQESVTEQDSKDSTYSLSSTLTLSKADYEKHKVYACEVTHQGLSSPVTKSFNRGEC
notes: as for B1
B3: GpH7-A5/GpH7-B3 variant S267_19Q/GpL16-k0 (antibody, human IgG1, kappa)
heavy 1: not shown
heavy 2: not shown
light: DIVMTQSPLSLPVTPGEPASISCQASESLVHSNRNTYLHWYLQKPGQSPQLLIYKVSNRFSGVPDRFSGSGSGTDFTLKISRVEAEDVGVYYCSQNTHVPPTFGQGTKVEIERTVAAPSVFIFPPSDEQLKSGTASVVCLLNNFYPREAKVQWKVDNALQSGNSQESVTEQDSKDSTYSLSSTLTLSKADYEKHKVYACEVTHQGLSSPVTKSFNRGEC
notes: as for B1
B4: GpH7-A5/GpH7-B3 variant P238_20W/GpL16-k0 (antibody, human IgG1, kappa)
heavy 1: not shown
heavy 2: not shown
light: DIVMTQSPLSLPVTPGEPASISCQASESLVHSNRNTYLHWYLQKPGQSPQLLIYKVSNRFSGVPDRFSGSGSGTDFTLKISRVEAEDVGVYYCSQNTHVPPTFGQGTKVEIERTVAAPSVFIFPPSDEQLKSGTASVVCLLNNFYPREAKVQWKVDNALQSGNSQESVTEQDSKDSTYSLSSTLTLSKADYEKHKVYACEVTHQGLSSPVTKSFNRGEC
notes: as for B1
B5: GpH7-A5/GpH7-B3 variant P238_10E/GpL16-k0 (antibody, human IgG1, kappa)
heavy 1: not shown
heavy 2: not shown
light: DIVMTQSPLSLPVTPGEPASISCQASESLVHSNRNTYLHWYLQKPGQSPQLLIYKVSNRFSGVPDRFSGSGSGTDFTLKISRVEAEDVGVYYCSQNTHVPPTFGQGTKVEIERTVAAPSVFIFPPSDEQLKSGTASVVCLLNNFYPREAKVQWKVDNALQSGNSQESVTEQDSKDSTYSLSSTLTLSKADYEKHKVYACEVTHQGLSSPVTKSFNRGEC
notes: as for B1
B6: GpH7-A5/GpH7-B3 variant K326_20W/GpL16-k0 (antibody, human IgG1, kappa)
heavy 1: not shown
heavy 2: not shown
light: DIVMTQSPLSLPVTPGEPASISCQASESLVHSNRNTYLHWYLQKPGQSPQLLIYKVSNRFSGVPDRFSGSGSGTDFTLKISRVEAEDVGVYYCSQNTHVPPTFGQGTKVEIERTVAAPSVFIFPPSDEQLKSGTASVVCLLNNFYPREAKVQWKVDNALQSGNSQESVTEQDSKDSTYSLSSTLTLSKADYEKHKVYACEVTHQGLSSPVTKSFNRGEC
notes: heterodimerized IgG1; alteration in the GpH7-B3 H chain only; also called He Ab
B7: GpH7-A5/GpH7-B3 variant K326_10E/GpL16-k0 (antibody, human IgG1, kappa)
heavy 1: not shown
heavy 2: not shown
light: DIVMTQSPLSLPVTPGEPASISCQASESLVHSNRNTYLHWYLQKPGQSPQLLIYKVSNRFSGVPDRFSGSGSGTDFTLKISRVEAEDVGVYYCSQNTHVPPTFGQGTKVEIERTVAAPSVFIFPPSDEQLKSGTASVVCLLNNFYPREAKVQWKVDNALQSGNSQESVTEQDSKDSTYSLSSTLTLSKADYEKHKVYACEVTHQGLSSPVTKSFNRGEC
notes: as for B6
B8: GpH7-A5/GpH7-B3 variant S267_09D/GpL16-k0 (antibody, human IgG1, kappa)
heavy 1: not shown
heavy 2: not shown
light: DIVMTQSPLSLPVTPGEPASISCQASESLVHSNRNTYLHWYLQKPGQSPQLLIYKVSNRFSGVPDRFSGSGSGTDFTLKISRVEAEDVGVYYCSQNTHVPPTFGQGTKVEIERTVAAPSVFIFPPSDEQLKSGTASVVCLLNNFYPREAKVQWKVDNALQSGNSQESVTEQDSKDSTYSLSSTLTLSKADYEKHKVYACEVTHQGLSSPVTKSFNRGEC
notes: as for B1
B9: GpH7-A5/GpH7-B3 variant P271_01G/GpL16-k0 (antibody, human IgG1, kappa)
heavy 1: not shown
heavy 2: not shown
light: DIVMTQSPLSLPVTPGEPASISCQASESLVHSNRNTYLHWYLQKPGQSPQLLIYKVSNRFSGVPDRFSGSGSGTDFTLKISRVEAEDVGVYYCSQNTHVPPTFGQGTKVEIERTVAAPSVFIFPPSDEQLKSGTASVVCLLNNFYPREAKVQWKVDNALQSGNSQESVTEQDSKDSTYSLSSTLTLSKADYEKHKVYACEVTHQGLSSPVTKSFNRGEC
notes: as for B6
B10: GpH7-A5/GpH7-B3 variant P238_19Q/GpL16-k0 (antibody, human IgG1, kappa)
heavy 1: not shown
heavy 2: not shown
light: DIVMTQSPLSLPVTPGEPASISCQASESLVHSNRNTYLHWYLQKPGQSPQLLIYKVSNRFSGVPDRFSGSGSGTDFTLKISRVEAEDVGVYYCSQNTHVPPTFGQGTKVEIERTVAAPSVFIFPPSDEQLKSGTASVVCLLNNFYPREAKVQWKVDNALQSGNSQESVTEQDSKDSTYSLSSTLTLSKADYEKHKVYACEVTHQGLSSPVTKSFNRGEC
notes: as for B1

Tests used:
[1] = target: T1, FcγRIIa R (human FcγRIIa, allotype R, …); assay: SPR (Biacore), relative binding vs GpH7-A5/GpH7-B3/GpL16-k0
[2] = target: T3, FcγRIa (human, UniProt P12314 16-292); assay: SPR (Biacore); He/Con_1a (FcγRIa) divided by He/Con_2b (FcγRIIb)
T3 construct: extracellular domain; also called FcgRI; 1a; not shown: His tag at the C terminus

[3] = target: T3, FcγRIa; assay: SPR (Biacore), antibody captured, FcγR as analyte; binding as % of GpH7-A5/GpH7-B3/GpL16-k0
[4] = target: T2, FcγRIIb; assay: as above

T3 sequence (P12314 16-292): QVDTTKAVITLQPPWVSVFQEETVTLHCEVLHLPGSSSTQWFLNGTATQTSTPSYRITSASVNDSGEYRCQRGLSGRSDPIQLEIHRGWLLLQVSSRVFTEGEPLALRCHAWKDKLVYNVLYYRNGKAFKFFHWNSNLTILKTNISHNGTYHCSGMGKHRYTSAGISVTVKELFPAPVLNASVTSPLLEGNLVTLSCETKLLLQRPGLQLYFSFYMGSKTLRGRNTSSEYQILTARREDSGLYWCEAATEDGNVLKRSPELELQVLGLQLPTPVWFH

Row | Binder | He/Con_2aR [1] | Ia/IIb He_1a/2b [2] | He/Con_1a [3] | He/Con_2b [4]
1 | B1 | 156 relative, control = 100 | – | – | –
2 | B2 | 110 relative, control = 100 | – | – | –
3 | B3 | 135 relative, control = 100 | – | – | –
4 | B4 | 117 relative, control = 100 | – | – | –
5 | B5 | 151 relative, control = 100 | – | – | –
6 | B6 | – | 0.69 ratio | 103 % of control | 148 % of control
7 | B7 | – | 0.52 ratio | 104 % of control | 200 % of control
8 | B8 | 173 relative, control = 100 | – | – | –
9 | B9 | – | 0.54 ratio | 105 % of control | 193 % of control
10 | B10 | 104 relative, control = 100 | – | – | –
